These results are taken from patent US20210393776A1 (FABION PHARMACEUTICALS, published 2021).

Read-outs that look alike come from different tables or passages of the source.

In general, EC50 (read off the curve) refers to the midpoint of the concentration-response curve.

Test [1] addresses T1, full length human EpCAM on CHO cells (human, UniProt P16422 24-314).
T1 construct: CHO cells stably expressing full length human EpCAM; also called hu-EpCAM-FL; human EpCAM-FL
T1 sequence: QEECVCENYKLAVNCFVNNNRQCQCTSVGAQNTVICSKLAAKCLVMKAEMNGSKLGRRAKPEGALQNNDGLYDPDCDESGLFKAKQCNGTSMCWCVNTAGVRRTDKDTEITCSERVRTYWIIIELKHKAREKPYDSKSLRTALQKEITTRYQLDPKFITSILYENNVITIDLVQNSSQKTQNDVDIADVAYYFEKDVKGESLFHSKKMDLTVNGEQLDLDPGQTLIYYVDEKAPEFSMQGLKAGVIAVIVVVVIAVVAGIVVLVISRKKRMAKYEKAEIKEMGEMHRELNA
Put plainly: flow cytometry on CHO cells stably expressing full length human EpCAM, PE detection. On the technique in general: A flow cytometer gives signals particle by particle.

Test [2] concerns the target T2, human CD3 on cells (Jurkat cells; T cells in human PBMCs) (human, UniProt P07766 23-207).
T2 construct: whole, on cells; the other chains of the complex are present on the cells; also called CD3 on Jurkat cells; CD3 on T cells in PBMC preparation
Nature of the test: flow cytometry on Jurkat cells, biotinylated protein, streptavidin-PE.

The target in test [3] is T3, recombinant cyno CD3epsilon/delta Fc(K-H) heterodimer (cynomolgus).
T3 construct: also called cynomolgus CD3epsilon/delta; recombinant cyno CD3epsilon/delta heterodimeric Fc protein; copies: 1 + 1
Put plainly: ELISA, immobilised antigen, biotinylated protein, streptavidin-HRP, ABTS, OD405. Background: ELISA stands for enzyme-linked immunosorbent assay.

Test [4] has as its target T4, human CD3epsilonAA1-27.Fc (human).
T4 construct: also called recombinant human CD3epsilon N-terminal peptide (aa1-27.Fc fusion); CD3epsilon N-terminal amino acid 1-27 peptide Fc fusion
The description is as above.

Test [5] deals with T3, recombinant cyno CD3epsilon/delta …. Described as above. This is another data set of the same source.
Test [6] has as its target T1, full length human EpCAM on CHO cells. Put plainly: flow cytometry on CHO cells stably expressing full length human EpCAM, PE detection. The source holds these as a separate data set.
Test [7] has as its target T4, human CD3epsilonAA1-27.Fc. Nature of the test: ELISA, immobilised antigen, biotinylated protein, streptavidin-HRP, ABTS, OD405. This is another data set of the same source.
The target in test [8] is T1, full length human EpCAM on CHO cells. Nature of the test: flow cytometry on CHO cells stably expressing full length human EpCAM, PE detection. The source holds these as a separate data set.
Test [9] concerns the target T3, recombinant cyno CD3epsilon/delta …. Nature of the test: ELISA, immobilised antigen, biotinylated protein, streptavidin-HRP, ABTS, OD405. This is another data set of the same source.
For test [10], the target named is T4, human CD3epsilonAA1-27.Fc. The description is as above. This is another data set of the same source.

B1: anti EpCAM scFv fusion to the LC alone of OKT3 Fab (bispecific antibody)
heavy: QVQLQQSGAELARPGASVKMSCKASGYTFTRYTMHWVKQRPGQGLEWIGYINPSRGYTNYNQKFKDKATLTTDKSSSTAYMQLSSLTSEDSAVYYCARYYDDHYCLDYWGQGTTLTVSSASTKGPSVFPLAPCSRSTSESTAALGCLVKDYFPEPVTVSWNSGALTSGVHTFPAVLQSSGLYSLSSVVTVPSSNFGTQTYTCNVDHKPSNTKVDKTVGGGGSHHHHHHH
light: QVQLQQSGGGLVQPGGSLRLSCAASGFTFSNYWMSWVRQAPGKGLEWVANIKQDGSEKFYVDSVKGRFTISRDNAKNSLYLQMNSLRAEDMAVYYCARVGGAWELGYWGQGTLVTVSAGGGGSGGGGSGGGGSGAQSVLTQPPSVSGAPGQRVTISCTGSSSNIGSYYGVHWYQQIPGTAPKLLIYSDTNRPSGVPDRFSGSKSGTSASLAITGLQAEDEADYYCQSYDSSLSGRVFGGGTKVTVLGRAQIVLTQSPAIMSASPGEKVTMTCSASSSVSYMNWYQQKSGTSPKRWIYDTSKLASGVPAHFRGSGSGTSYSLTISGMEAEDAATYYCQQWSSNPFTFGSGTKLEINRTVAAPSVFIFPPSDEQLKSGTASVVCLLNNFYPREAKVQWKVDNALQSGNSQESVTEQDSKDSTYSLSSTLTLSKADYEKHKVYACEVTHQGLSSPVTKSFNRGEC
notes: also called EpCAM1.1×OKT3 Fab fusion, LC only
Turning to B1, the binding result is on record as “binds” in test [1], “no binding” in [2], “no binding (tested: about 80 nM (last point; axis to 100 nM))” in test [3] and “no binding (tested: about 80 nM (last point; axis to 100 nM))” in test [4].

B2: anti EpCAM scFv fusion to both HC and LC of OKT3 Fab (bispecific antibody)
heavy: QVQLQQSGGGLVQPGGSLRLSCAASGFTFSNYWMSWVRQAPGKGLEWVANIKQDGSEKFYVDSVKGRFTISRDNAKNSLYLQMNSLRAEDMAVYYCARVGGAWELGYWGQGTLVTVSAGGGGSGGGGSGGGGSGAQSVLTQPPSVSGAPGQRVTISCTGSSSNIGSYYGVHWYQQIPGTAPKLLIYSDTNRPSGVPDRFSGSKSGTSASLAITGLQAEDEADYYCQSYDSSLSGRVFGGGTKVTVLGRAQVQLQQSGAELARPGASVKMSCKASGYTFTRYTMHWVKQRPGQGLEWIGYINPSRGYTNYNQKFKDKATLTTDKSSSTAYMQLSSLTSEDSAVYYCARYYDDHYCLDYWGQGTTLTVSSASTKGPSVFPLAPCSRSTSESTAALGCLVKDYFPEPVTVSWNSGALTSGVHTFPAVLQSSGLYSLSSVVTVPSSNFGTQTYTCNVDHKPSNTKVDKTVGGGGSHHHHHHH
light: B1 light
notes: also called EpCAM1.1×OKT3 Fab fusion, HC and LC
Turning to B2, the binding result in test [1] is on record as “binds”; in [2], “no binding”; in [3] it was “no binding (tested: about 80 nM (last point; axis to 100 nM))”; in test [4] it was “no binding (tested: about 80 nM (last point; axis to 100 nM))”.

B3: EpCAM2.2-(H)-hu-1F3.1 Fab (bispecific antibody)
heavy chain Fd with anti-EpCAM scFv EpCAM2.2 at the N-terminus: QVQLQESGPGLVKPSETLTLTCSVSGGSISGYYWSWIRQPPGMGLEWIGSVHHSGSTSYNPSLKSRVTISVDTSKNQFSLKLNSVTAADTAVYYCARYRGSGLDYWGQGTLVTVSSGGGGSGGGGSGGGGSQSVLTQPPSVSAAPGQKVTISCSGDSSNIGKNYVSWYQQLPGTAPKLLIYENNERPSGVPDRFSGSKSGTSATLGITGLQTGDEADYYCAAWDTSLSARVFGGGTKVTVLGRAEVQLVESGGGLVQPGGSLRLSCAASGFTFSTYAMNWVRQAPGKGLEWVSRIRSKYNNYATYYADSVKDRFTISRDDSKNTLYLQMNSLRAEDTAVYYCARHGNFGNSYVSWFAYWGQGTMVTVSSASTKGPSVFPLAPCSRSTSESTAALGCLVKDYFPEPVTVSWNSGALTSGVHTFPAVLQSSGLYSLSSVVTVPSSNFGTQTYTCNVDHKPSNTKVDKTVGGGGSHHHHHHH
light chain, unfused: QAVVTQEPSLTVSPGGTVTLTCRSSTGAVTTSNYANWVQQKPGQAPRGLIGGTNKRAPGTPARFSGSLLGGKAALTLSGVQPEDEAEYYCALWYSNLWVFGGGTKLTVLGQPKAAPSVTLFPPSSEELQANKATLVCLISDFYPGAVTVAWKADSSPVKAGVETTTPSKQSNNKYAASSYLSLTPEQWKSHRSYSCQVTHEGSTVEKTVAPTECS
notes: member of groups m21 and m31
On to B3, for which, in [5], the concentration for a half-maximal effect (EC50 (read off the curve)) is about 2 nM. Besides, the binding result in test [6] is “binds”.

B4: EpCAM2.2-(H+L)-hu-1F3.1 MSFP (bispecific antibody)
heavy: B3 heavy chain Fd with anti-EpCAM scFv EpCAM2.2 at the N-terminus
light: QVQLQESGPGLVKPSETLTLTCSVSGGSISGYYWSWIRQPPGMGLEWIGSVHHSGSTSYNPSLKSRVTISVDTSKNQFSLKLNSVTAADTAVYYCARYRGSGLDYWGQGTLVTVSSGGGGSGGGGSGGGGSQSVLTQPPSVSAAPGQKVTISCSGDSSNIGKNYVSWYQQLPGTAPKLLIYENNERPSGVPDRFSGSKSGTSATLGITGLQTGDEADYYCAAWDTSLSARVFGGGTKVTVLGRAQAVVTQEPSLTVSPGGTVTLTCRSSTGAVTTSNYANWVQQKPGQAPRGLIGGTNKRAPGTPARFSGSLLGGKAALTLSGVQPEDEAEYYCALWYSNLWVFGGGTKLTVLGQPKAAPSVTLFPPSSEELQANKATLVCLISDFYPGAVTVAWKADSSPVKAGVETTTPSKQSNNKYAASSYLSLTPEQWKSHRSYSCQVTHEGSTVEKTVAPTECS
notes: (H + L) format has a GlyArgAla linker on both chains; His tag at the C-terminus of the Fd; also called double fusion of EpCAM2.2 scFv to both the HC and LC of hu-1F3.1 Fab
With B4, the “EC50 (read off the curve)” value in [5] and in test [7] was about 3 nM each time.

B5: EpCAM1.1-(L)-hu-1F3.1 Fab (bispecific antibody)
heavy chain Fd (VH-CH1), unfused: EVQLVESGGGLVQPGGSLRLSCAASGFTFSTYAMNWVRQAPGKGLEWVSRIRSKYNNYATYYADSVKDRFTISRDDSKNTLYLQMNSLRAEDTAVYYCARHGNFGNSYVSWFAYWGQGTMVTVSSASTKGPSVFPLAPCSRSTSESTAALGCLVKDYFPEPVTVSWNSGALTSGVHTFPAVLQSSGLYSLSSVVTVPSSNFGTQTYTCNVDHKPSNTKVDKTVGGGGSHHHHHHH
light chain with anti-EpCAM scFv EpCAM1.1 at the N-terminus: QVQLQQSGGGLVQPGGSLRLSCAASGFTFSNYWMSWVRQAPGKGLEWVANIKQDGSEKFYVDSVKGRFTISRDNAKNSLYLQMNSLRAEDMAVYYCARVGGAWELGYWGQGTLVTVSAGGGGSGGGGSGGGGSGAQSVLTQPPSVSGAPGQRVTISCTGSSSNIGSYYGVHWYQQIPGTAPKLLIYSDTNRPSGVPDRFSGSKSGTSASLAITGLQAEDEADYYCQSYDSSLSGRVFGGGTKVTVLGRAQAVVTQEPSLTVSPGGTVTLTCRSSTGAVTTSNYANWVQQKPGQAPRGLIGGTNKRAPGTPARFSGSLLGGKAALTLSGVQPEDEAEYYCALWYSNLWVFGGGTKLTVLGQPKAAPSVTLFPPSSEELQANKATLVCLISDFYPGAVTVAWKADSSPVKAGVETTTPSKQSNNKYAASSYLSLTPEQWKSHRSYSCQVTHEGSTVEKTVAPTECS
notes: member of group m19; also called EpCAM1.1-(L)-hu-1F3 Fab
Consider B5, for which the binding result in [8], in test [9] and in test [10] was “binds” throughout.

B6: EpCAM2.2-(L)-hu-1F3.1 Fab (bispecific antibody)
heavy chain Fd (VH-CH1), unfused: B5 heavy chain Fd (VH-CH1), unfused
light chain with anti-EpCAM scFv EpCAM2.2 at the N-terminus: B4 light
notes: member of groups m21 and m31; also called EpCAM2.2-(L)-hu-1F3 Fab
In the case of B6, the binding result in [5] and in [6] was “binds” throughout. In addition, the “EC50 (read off the curve)” value in test [7] is about 2 nM.

B7: EpCAM1.1-(H+L)-hu-1F3.1 Fab (bispecific antibody)
heavy chain Fd with anti-EpCAM scFv EpCAM1.1 at the N-terminus: QVQLQQSGGGLVQPGGSLRLSCAASGFTFSNYWMSWVRQAPGKGLEWVANIKQDGSEKFYVDSVKGRFTISRDNAKNSLYLQMNSLRAEDMAVYYCARVGGAWELGYWGQGTLVTVSAGGGGSGGGGSGGGGSGAQSVLTQPPSVSGAPGQRVTISCTGSSSNIGSYYGVHWYQQIPGTAPKLLIYSDTNRPSGVPDRFSGSKSGTSASLAITGLQAEDEADYYCQSYDSSLSGRVFGGGTKVTVLGRAEVQLVESGGGLVQPGGSLRLSCAASGFTFSTYAMNWVRQAPGKGLEWVSRIRSKYNNYATYYADSVKDRFTISRDDSKNTLYLQMNSLRAEDTAVYYCARHGNFGNSYVSWFAYWGQGTMVTVSSASTKGPSVFPLAPCSRSTSESTAALGCLVKDYFPEPVTVSWNSGALTSGVHTFPAVLQSSGLYSLSSVVTVPSSNFGTQTYTCNVDHKPSNTKVDKTVGGGGSHHHHHHH
light chain with anti-EpCAM scFv EpCAM1.1 at the N-terminus: B5 light chain with anti-EpCAM scFv EpCAM1.1 at the N-terminus
notes: member of group m19; also called EpCAM1.1-(H+L)-hu-1F3 Fab
Consider B7, for which the binding result in [8], in test [9] and in test [10] was “binds” each time.
